Experimental data: patent publication US20240301064A1 (published 2024)

T1: human MAdCAM (human, UniProt Q13477 19-317, limits assumed)
T1 construct: also called huMAdCAM
T1 sequence (looked up): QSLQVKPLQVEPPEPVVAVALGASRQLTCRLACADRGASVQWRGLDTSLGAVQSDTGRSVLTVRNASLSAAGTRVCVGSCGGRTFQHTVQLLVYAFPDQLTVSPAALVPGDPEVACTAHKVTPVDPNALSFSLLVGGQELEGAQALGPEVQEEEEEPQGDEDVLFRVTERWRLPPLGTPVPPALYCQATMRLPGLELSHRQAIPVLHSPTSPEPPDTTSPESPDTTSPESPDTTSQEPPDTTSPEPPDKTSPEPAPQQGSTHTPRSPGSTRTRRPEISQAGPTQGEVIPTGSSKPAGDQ


Key:
human MAdCAM = molecular target: T1, human MAdCAM; assay: BLI Octet, against PRNT1
Procedure: Anti-human Fc biosensors were equilibrated in assay buffer (1% BSA in 1×PBS with 0.05% Tween-20) for 10 minutes before the experiment was set-up. Test articles were diluted to 5 μg/mL in assay buffer and 200 μL pipetted to 96 well plate. Human MAdCAM was titrated down, two-fold dilutions (starting at 600 nM as the highest concentration, 7-point dilution). Experiment was run using data acquisition software version 10.0 for OCTET96 RED. Test articles were captured using anti-human Fc biosensors for 180 s. Biosensors loaded with test articles were then equilibrated in assay buffer for 120 s. Association was performed in wells with huMAdCAM for 180 seconds. Dissociation was performed in wells with assay buffer for 180 s. Kinetic parameters (kon and kdis) and dissociation constant (KD) were calculated from a 1:1 global fit model using the data analysis software of the Octet96 RED software version 10.

[1] = molecular target: PD-1 on PD-1 reporter Jurkat cells; assay: cell-based or functional assay
human PD-1 = molecular target: T2, human PD-1 (human, UniProt Q15116 25-167, limits assumed); assay: BLI, antibody on AHC tip
T2 construct: also called huPD-1
T2 sequence (Q15116 25-167 limits assumed): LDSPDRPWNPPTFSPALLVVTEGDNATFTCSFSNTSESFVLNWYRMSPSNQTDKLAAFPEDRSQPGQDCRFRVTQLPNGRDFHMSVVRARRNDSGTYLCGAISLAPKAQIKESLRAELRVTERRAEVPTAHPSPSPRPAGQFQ

| binding result (human PD-1) | Binder | also measured |
| --- | --- | --- |
| – | MIAB182 (antibody, human IgG1, kappa, also called MIAB182-001) heavy: EVQLLESGGGLVQPGGSLRLSCAASGFTFSSYWMHWVRQAPGKGLEWVSAISGSGGSTYYADSVKGRFTISRDNSKNTLYLQMNSLRAEDTAVYYCARDRPYYYYMDVWGKGTTVTVSSASTKGPSVFPLAPSSKSTSGGTAALGCLVKDYFPEPVTVSWNSGALTSGVHTFPAVLQSSGLYSLSSVVTVPSSSLGTQTYICNVNHKPSNTKVDKKVEPKSCDKTHTCPPCPAPEAAGAPSVFLFPPKPKDTLMISRTPEVTCVVVDVSHEDPEVKFNWYVDGVEVHNAKTKPREEQYNSTYRVVSVLTVLHQDWLNGKEYKCKVSNKALPAPIEKTISKAKGQPREPQVYTLPPSREEMTKNQVSLTCLVKGFYPSDIAVEWESNGQPENNYKTTPPVLDSDGSFFLYSKLTVDKSRWQQGNVFSCSVMHEALHNHYTQKSLSLSPGGGGGSAPTSSSTKKTQLQLEHLLLDLQMILNGINNYKNPKLTRMLTFKFYMPKKATELKHLQCLEEELKPLEEALNLAPSKNFHLRPRDLISDINVIVLELKGSETTFMCEYADETATIVEFINRWITFSQSIISTLT light: not shown | fold reduction of MAdCAM affinity (human MAdCAM): 10 fold |
| – | PMAB61 (bispecific antibody, human IgG1, kappa) heavy: EVQLVQSGAEVKKPGASVKVSCKASGYSFTSYYMHWVRQAPGQGLEWMGIINPSGGSTSYAQKFQGRVTMTRDTSTSTVYMELSSLRSEDTAVYYCASGWVYWGQGTLVTVSSASTKGPSVFPLAPSSKSTSGGTAALGCLVKDYFPEPVTVSWNSGALTSGVHTFPAVLQSSGLYSLSSVVTVPSSSLGTQTYICNVNHKPSNTKVDKKVEPKSCDKTHTCPPCPAPEAAGAPSVFLFPPKPKDTLMISRTPEVTCVVVDVSHEDPEVKFNWYVDGVEVHNAKTKPREEQYNSTYRVVSVLTVLHQDWLNGKEYKCKVSNKALPAPIEKTISKAKGQPREPQVYTLPPSREEMTKNQVSLTCLVKGFYPSDIAVEWESNGQPENNYKTTPPVLDSDGSFFLYSKLTVDKSRWQQGNVFSCSVMHEALHNHYTQKSLSLSPGGGGGSGGGGSGGGGSEVQLLESGGGLVQPGGSLRLSCAASGFTFSSYWMHWVRQAPGKGLEWVSYISGSGGYTNYADSVKGRFTISRDNSKNTLYLQMNSLRAEDTAVYYCARDRPYYYDMDVWGKGTTVTVSSGGGGSGGGGSGGGGSGGGGSDIQMTQSPSSLSASVGDRVTITCRASQSISSSLAWYQQKPGKAPKLLIYAASSLQSGVPSRFSGSGSGTDFTLTISSLQPEDFATYYCQQYKSYPVTFGQGTKVEIK light: not shown | PD-1 reporter Jurkat cells on test-article-loaded MAdCAM-expressing CHO cells; EC50 [1]: 3.02 nM; SHP-2 recruitment, Ig-tethered test article, PD-1 reporter Jurkat cells; EC50 (second experiment) [1]: 4.45 nM |
| no binding (tested: 1000 nM) | PMAB144 (bispecific antibody, human IgG1, kappa) heavy: EVQLLESGGGLVQPGGSLRLSCAASGFTFSNSDMSWVRQAPGKGLEWVSGITISGGSTYYADSVKGRFTISRDNSKNTLYLQMNSLRAEDTAVYYCARGRGGSGWLDYWGQGTLVTVSSASTKGPSVFPLAPSSKSTSGGTAALGCLVKDYFPEPVTVSWNSGALTSGVHTFPAVLQSSGLYSLSSVVTVPSSSLGTQTYICNVNHKPSNTKVDKKVEPKSCDKTHTCPPCPAPEAAGAPSVFLFPPKPKDTLMISRTPEVTCVVVDVSHEDPEVKFNWYVDGVEVHNAKTKPREEQYNSTYRVVSVLTVLHQDWLNGKEYKCKVSNKALPAPIEKTISKAKGQPREPQVYTLPPSREEMTKNQVSLTCLVKGFYPSDIAVEWESNGQPENNYKTTPPVLDSDGSFFLYSKLTVDKSRWQQGNVFSCSVMHEALHNHYTQKSLSLSPGGGGGSGGGGSGGGGSEVQLLESGGGLVQPGGSLRLSCAASGFTFSDFWMHWVRQAPGKGLEWISYISGDSGYTNYADSVKGRFTISRDNSKNTLYLQMNSLRAEDTAVYYCARDRPYYYYMDVWGKGTTVTVSSGGGGSGGGGSGGGGSGGGGSDIQMTQSPSSLSASVGDRVTITCRASQSVSRSLAWYQQKPGKAPKLLIYAASSLQSGVPSRFSGSGSGTDFTLTISSLQPEDFATYYCQQYKSYPVTFGQGTKVEIK light: not shown | – |
| no binding (tested: 1000 nM) | PMAB179 (bispecific antibody, human IgG1, kappa) heavy: EVQLLESGGGLVQPGGSLRLSCAASGFTFSSYDMSWVRQAPGKGLEWVSAISISGGSTYYADSVKGRFTISRDNSKNTLYLQMNSLRAEDTAVYYCARGRGGSGWLDYWGQGTLVTVSSASTKGPSVFPLAPSSKSTSGGTAALGCLVKDYFPEPVTVSWNSGALTSGVHTFPAVLQSSGLYSLSSVVTVPSSSLGTQTYICNVNHKPSNTKVDKKVEPKSCDKTHTCPPCPAPEAAGAPSVFLFPPKPKDTLMISRTPEVTCVVVDVSHEDPEVKFNWYVDGVEVHNAKTKPREEQYNSTYRVVSVLTVLHQDWLNGKEYKCKVSNKALPAPIEKTISKAKGQPREPQVYTLPPSREEMTKNQVSLTCLVKGFYPSDIAVEWESNGQPENNYKTTPPVLDSDGSFFLYSKLTVDKSRWQQGNVFSCSVMHEALHNHYTQKSLSLSPGGGGGSGGGGSGGGGSEVQLLESGGGLVQPGGSLRLSCAASGFTFSDFWMHWVRQAPGKGLEWISYISGDSGYTNYADSVKGRFTISRDNSKNTLYLQMNSLRAEDTAVYYCARDRPYYYYMDVWGKGTTVTVSSGGGGSGGGGSGGGGSGGGGSDIQMTQSPSSLSASVGDRVTITCRASQSVSRSLAWYQQKPGKAPKLLIYAASSLQSGVPSRFSGSGSGTDFTLTISSLQPEDFATYYCQQYKSYPVTFGQGTKVEIK light: not shown | – |
| no binding (tested: 1000 nM) | PMAB182 (bispecific antibody, human IgG1, kappa) heavy: EVQLLESGGGLVQPGGSLRLSCAASGFTFSSYAMSWVRQAPGKGLEWVSGISGSGGSTYYADSVKGRFTISRDNSKNTLYLQMNSLRAEDTAVYYCARGRGGSGWLDYWGQGTLVTVSSASTKGPSVFPLAPSSKSTSGGTAALGCLVKDYFPEPVTVSWNSGALTSGVHTFPAVLQSSGLYSLSSVVTVPSSSLGTQTYICNVNHKPSNTKVDKKVEPKSCDKTHTCPPCPAPEAAGAPSVFLFPPKPKDTLMISRTPEVTCVVVDVSHEDPEVKFNWYVDGVEVHNAKTKPREEQYNSTYRVVSVLTVLHQDWLNGKEYKCKVSNKALPAPIEKTISKAKGQPREPQVYTLPPSREEMTKNQVSLTCLVKGFYPSDIAVEWESNGQPENNYKTTPPVLDSDGSFFLYSKLTVDKSRWQQGNVFSCSVMHEALHNHYTQKSLSLSPGGGGGSGGGGSGGGGSEVQLLESGGGLVQPGGSLRLSCAASGFTFSDFWMHWVRQAPGKGLEWISYISGDSGYTNYADSVKGRFTISRDNSKNTLYLQMNSLRAEDTAVYYCARDRPYYYYMDVWGKGTTVTVSSGGGGSGGGGSGGGGSGGGGSDIQMTQSPSSLSASVGDRVTITCRASQSVSRSLAWYQQKPGKAPKLLIYAASSLQSGVPSRFSGSGSGTDFTLTISSLQPEDFATYYCQQYKSYPVTFGQGTKVEIK light: not shown | – |
| no binding (tested: 1000 nM) | PMAB145 (bispecific antibody, human IgG1, kappa) heavy: EVQLLESGGGLVQPGGSLRLSCAASGFTFSNSDMSWVRQAPGKGLEWVSGITISGGSTYYADSVKGRFTISRDNSKNTLYLQMNSLRAEDTAVYYCARGRGGSGWLDYWGQGTLVTVSSASTKGPSVFPLAPSSKSTSGGTAALGCLVKDYFPEPVTVSWNSGALTSGVHTFPAVLQSSGLYSLSSVVTVPSSSLGTQTYICNVNHKPSNTKVDKKVEPKSCDKTHTCPPCPAPEAAGAPSVFLFPPKPKDTLMISRTPEVTCVVVDVSHEDPEVKFNWYVDGVEVHNAKTKPREEQYNSTYRVVSVLTVLHQDWLNGKEYKCKVSNKALPAPIEKTISKAKGQPREPQVYTLPPSREEMTKNQVSLTCLVKGFYPSDIAVEWESNGQPENNYKTTPPVLDSDGSFFLYSKLTVDKSRWQQGNVFSCSVMHEALHNHYTQKSLSLSPGGGGGSGGGGSGGGGSEVQLLESGGGLVQPGGSLRLSCAASGFTFSDFWMHWVRQAPGKGLEWISYISGDSGYTNYADSVKGRFTISRDNSKNTLYLQMNSLRAEDTAVYYCARDRPYYYYMDVWGKGTTVTVSSGGGGSGGGGSGGGGSGGGGSDIQMTQSPSSLSASVGDRVTITCRASQSVSRSLAWYQQKPGKAPKLLIYAASSLQSGVPSRFSGSGSGTDFTLTISSLQPEDFATYYCQQYKSYPVTFGQGTKVEIK light: not shown | – |
| no binding (tested: 1000 nM) | PMAB184 (bispecific antibody, human IgG1, kappa) heavy: EVQLLESGGGLVQPGGSLRLSCAASGFTFSSYDMSWVRQAPGKGLEWVSAISGSGGSTYYADSVKGRFTISRDNSKNTLYLQMNSLRAEDTAVYYCARGRGGSGWLDYWGQGTLVTVSSASTKGPSVFPLAPSSKSTSGGTAALGCLVKDYFPEPVTVSWNSGALTSGVHTFPAVLQSSGLYSLSSVVTVPSSSLGTQTYICNVNHKPSNTKVDKKVEPKSCDKTHTCPPCPAPEAAGAPSVFLFPPKPKDTLMISRTPEVTCVVVDVSHEDPEVKFNWYVDGVEVHNAKTKPREEQYNSTYRVVSVLTVLHQDWLNGKEYKCKVSNKALPAPIEKTISKAKGQPREPQVYTLPPSREEMTKNQVSLTCLVKGFYPSDIAVEWESNGQPENNYKTTPPVLDSDGSFFLYSKLTVDKSRWQQGNVFSCSVMHEALHNHYTQKSLSLSPGGGGGSGGGGSGGGGSEVQLLESGGGLVQPGGSLRLSCAASGFTFSDFWMHWVRQAPGKGLEWISYISGDSGYTNYADSVKGRFTISRDNSKNTLYLQMNSLRAEDTAVYYCARDRPYYYYMDVWGKGTTVTVSSGGGGSGGGGSGGGGSGGGGSDIQMTQSPSSLSASVGDRVTITCRASQSVSRSLAWYQQKPGKAPKLLIYAASSLQSGVPSRFSGSGSGTDFTLTISSLQPEDFATYYCQQYKSYPVTFGQGTKVEIK light: not shown | – |
